Reference: patent publication US20140274782A1, “AFFINITY REAGENTS AND METHODS FOR DETECTION, PURIFICATION, AND PROTEOMIC ANALYSIS OF METHYLATED PROTEINS” (The Board of Trustees of the Leland Stanford Junior …, priority 2013, published 2014)

T1: G9a and GLP (Homo sapiens, UniProt Q96KQ7+Q9H9B1)
T1 sequence (Q96KQ7 2-1210 limits assumed): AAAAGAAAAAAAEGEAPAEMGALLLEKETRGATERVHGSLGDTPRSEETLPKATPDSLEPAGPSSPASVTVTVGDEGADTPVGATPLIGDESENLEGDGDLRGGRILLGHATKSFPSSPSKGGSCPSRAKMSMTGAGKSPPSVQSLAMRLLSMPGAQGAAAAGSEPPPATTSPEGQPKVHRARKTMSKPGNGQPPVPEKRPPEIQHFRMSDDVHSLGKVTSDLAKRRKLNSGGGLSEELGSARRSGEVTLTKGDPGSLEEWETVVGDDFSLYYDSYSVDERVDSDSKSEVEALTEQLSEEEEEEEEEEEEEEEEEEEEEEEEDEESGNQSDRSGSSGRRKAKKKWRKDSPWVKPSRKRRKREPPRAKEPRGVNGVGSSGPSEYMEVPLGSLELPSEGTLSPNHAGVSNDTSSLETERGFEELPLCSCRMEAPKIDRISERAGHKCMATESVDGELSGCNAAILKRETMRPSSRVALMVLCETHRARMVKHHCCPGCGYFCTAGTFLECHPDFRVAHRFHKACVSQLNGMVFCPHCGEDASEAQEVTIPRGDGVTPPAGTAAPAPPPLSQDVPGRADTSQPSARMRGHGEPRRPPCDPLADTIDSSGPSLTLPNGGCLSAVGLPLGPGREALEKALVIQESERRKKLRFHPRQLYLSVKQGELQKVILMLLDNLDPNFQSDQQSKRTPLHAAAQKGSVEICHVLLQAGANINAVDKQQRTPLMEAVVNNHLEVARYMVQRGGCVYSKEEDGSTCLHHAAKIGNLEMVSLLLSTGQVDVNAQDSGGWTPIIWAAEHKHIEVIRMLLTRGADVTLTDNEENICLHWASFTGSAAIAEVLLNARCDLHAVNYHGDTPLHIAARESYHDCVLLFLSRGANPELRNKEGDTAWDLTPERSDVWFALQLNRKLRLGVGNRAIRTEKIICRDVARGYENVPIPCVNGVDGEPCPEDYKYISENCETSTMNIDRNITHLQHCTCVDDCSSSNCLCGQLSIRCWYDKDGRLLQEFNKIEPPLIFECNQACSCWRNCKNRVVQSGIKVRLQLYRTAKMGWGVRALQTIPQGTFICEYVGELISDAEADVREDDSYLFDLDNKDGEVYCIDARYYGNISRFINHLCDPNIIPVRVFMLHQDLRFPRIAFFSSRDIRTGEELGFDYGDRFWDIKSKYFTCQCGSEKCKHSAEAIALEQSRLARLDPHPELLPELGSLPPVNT
T1 sequence (Q9H9B1 2-1298 limits assumed): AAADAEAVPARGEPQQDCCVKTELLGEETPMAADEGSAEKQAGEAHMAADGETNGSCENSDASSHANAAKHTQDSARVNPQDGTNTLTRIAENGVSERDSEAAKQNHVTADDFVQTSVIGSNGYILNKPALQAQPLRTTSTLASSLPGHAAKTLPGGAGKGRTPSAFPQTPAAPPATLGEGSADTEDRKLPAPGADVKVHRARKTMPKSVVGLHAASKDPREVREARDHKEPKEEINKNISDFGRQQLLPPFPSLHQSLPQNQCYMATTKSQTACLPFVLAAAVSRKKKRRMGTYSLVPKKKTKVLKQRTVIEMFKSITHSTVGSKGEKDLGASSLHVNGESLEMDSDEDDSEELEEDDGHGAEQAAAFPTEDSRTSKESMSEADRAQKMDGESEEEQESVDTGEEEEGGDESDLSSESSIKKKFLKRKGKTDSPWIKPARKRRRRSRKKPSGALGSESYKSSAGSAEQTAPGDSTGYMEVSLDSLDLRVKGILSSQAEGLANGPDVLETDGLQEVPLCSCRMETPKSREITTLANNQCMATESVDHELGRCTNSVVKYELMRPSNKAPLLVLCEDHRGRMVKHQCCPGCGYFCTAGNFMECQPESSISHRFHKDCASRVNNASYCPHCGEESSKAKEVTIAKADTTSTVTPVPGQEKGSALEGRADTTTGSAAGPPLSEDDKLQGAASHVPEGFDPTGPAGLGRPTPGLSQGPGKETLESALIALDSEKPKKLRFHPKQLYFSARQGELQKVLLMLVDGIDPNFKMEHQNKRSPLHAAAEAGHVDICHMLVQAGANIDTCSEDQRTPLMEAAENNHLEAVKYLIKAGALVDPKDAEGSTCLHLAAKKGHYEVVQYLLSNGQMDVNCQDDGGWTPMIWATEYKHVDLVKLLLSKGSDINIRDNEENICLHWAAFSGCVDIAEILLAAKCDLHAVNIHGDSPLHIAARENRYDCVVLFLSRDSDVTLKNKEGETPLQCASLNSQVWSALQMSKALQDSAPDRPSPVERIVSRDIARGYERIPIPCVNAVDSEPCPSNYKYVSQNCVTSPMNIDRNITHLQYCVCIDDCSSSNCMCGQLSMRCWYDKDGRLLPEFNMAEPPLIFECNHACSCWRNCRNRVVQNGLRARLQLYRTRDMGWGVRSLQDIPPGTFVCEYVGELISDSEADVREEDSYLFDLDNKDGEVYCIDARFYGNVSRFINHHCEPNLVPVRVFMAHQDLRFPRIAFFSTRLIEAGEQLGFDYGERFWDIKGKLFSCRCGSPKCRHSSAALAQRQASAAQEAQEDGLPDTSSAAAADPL


Legend:
[1] = tested on: 3×MBT domain of L3MBTL1; experiment: Triple SILAC pull-down, 3xMBT/3xMBTD355N ratio (cytoplasmic, nuclear and chromatin fractions of 293T cells); format: binding, human; details: SILAC ratio, pull-down 3xMBT vs 3xMBTD355N; for 3xMBT/D355N UNC Heavy: experiment with UNC0638 in heavy SILAC media; for 3xMBT/D355N UNC Light: experiment with UNC0638 in light SILAC media;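 for all read-outs here: proteins quantified with MaxQuant, requiring at least two unique peptides and quantification in both label directions, normalized to the mean of proteins from a digested loading control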
Procedure: For stable isotope labeling by amino acids in cell culture (SILAC) experiments HEK 293T cells were grown for at least six doublings in DMEM for SILAC supplemented with 10% dialyzed fetal bovine serum (FBS), 230 mg/L L-proline and either 100 mg/L each of L-lysine and L-arginine (“light” medium), D4-L-lysine and ^13C6-L-arginine (“medium” media), or ^13C6^15N2-L-lysine and ^13C6^15N4-L-arginine (Thermo Scientific). Heavy methyl labeling used DMEM without L-Methionine or L-Cysteine supplemented with D3^13C-L-Methionine (Sigma), L-Cysteine (Sigma) and 10% dialyzed FBS.
For UNC0638 treatments cells were treated for 24 hours with UNC0638 at 2.5 μM or DMSO vehicle control. One experiment treated cells in light media with UNC0638, the other treated cells in heavy media. Both experiments included cells in medium media treated with DMSO for negative control pull-down with 3×MBTD355N.
UNC0638 treatment experiments used a Q-Exactive mass spectrometer (ThermoFisher Scientific). A 25 cm HPLC column with 3 μm Reliasil (Orochem) was used to separate peptides over a 4 hour gradient from 0 to 75% acetonitrile. Ions were generated using a custom nanospray source flowing at 250 nL/minute. Mass spectrometry settings were 70,000 MS1 resolution, data dependent selection of up to 20 precursor ions per cycle, dynamic exclusion of 30 seconds and isolation window of 2 m/z. The nuclear fraction from the experiment using UNC0638 on cells in heavy media was additionally analyzed by 2D HPLC-MS/MS as described earlier.
Peptides were identified and quantified using MaxQuant version 1.2.2.5 (Cox and Mann, supra) with the following changes to default settings: mono- and di-methylation of lysine, and oxidation of methionine, and N-terminal acetylation as variable modifications, disabled “I=L”, up to three modifications per peptide, one missed cleavage, maximum charge of 5. Protein and peptide FDR were set to 1%, and proteins were filtered post-hoc for at least two unique peptides. Proteins were excluded from an experiment if they were not quantified in both labeling directions. Because FDR is unreliable for small numbers of peptides the modification site FDR was set to 10% and all methylated peptides were manually verified. […] Quantitative protein data was normalized to the mean value among proteins identified by analyzing 50 ng of digested loading control.
For UNC0638 experiments the treated vs. untreated ratio was determined by subtracting the value from 3×MBTD355N prior to dividing values from the light and heavy channels. Only proteins showing a two-fold signal to background ratio (3×MBT/3×MBTD355N) were evaluated as potential G9a/GLP substrates.

[2] = target: T1, G9a and GLP; experiment: Triple SILAC pull-down after UNC0638 treatment of 293T cells, DMSO/UNC0638 ratio of protein captured by 3×MBT; format: cell-based; set-up: endogenous in cells; host or cells: HEK 293T; details: for Relative to UNC0638 UNC Heavy / Relative to UNC0638 UNC Light: SILAC ratio DMSO/UNC0638 of protein pulled down with 3xMBT; for Relative to UNC0638 UNC Heavy: UNC0638 in heavy SILAC media; for Relative to UNC0638 UNC Light: UNC0638 in light SILAC media; for Relative to UNC0638 Average: average of UNC Light and UNC Heavy experiments;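 for all read-outs here: mass spectrometry (Q-Exactive) SILAC quantitation, DMSO/UNC0638 ratio computed after subtracting 3×MBTD355N mutant pull-down background, only proteins with at least twofold 3×MBT over mutant signal considered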

Relative to UNC0638 UNC Heavy [2] | Relative to UNC0638 UNC Light [2] | Relative to UNC0638 Average [2] | Molecule | 3xMBT/D355N UNC Heavy [1] | 3xMBT/D355N UNC Light [1]
0.18 log base 2 | 0.29 log base 2 | 0.24 log base 2 | RCC1 (protein, UniProt P18754 2-421, looked up) Regulator of chromosome …: SPKRIAKRRSPPADAIPKSKKVKVSHRSHSTEPGLVLTLGQGDVGQLGLGENVMERKKPALVSIPEDVVQAEAGGMHTVCLSKSGQVYSFGCNDEGALGRDTSVEGSEMVPGKVELQEKVVQVSAGDSHTAALTDDGRVFLWGSFRDNNGVIGLLEPMKKSMVPVQVQLDVPVVKVASGNDHLVMLTADGDLYTLGCGEQGQLGRVPELFANRGGRQGLERLLVPKCVMLKSRGSRGHVRFQDAFCGAYFTFAISHEGHVYGFGLSNYHQLGTPGTESCFIPQNLTSFKNSTKSWVGFSGGQHHTVCMDSEGKAYSLGRAEYGRLGLGEGAEEKSIPTLISRLPAVSSVACGASVGYAVTKDGRVFAWGMGTNYQLGTGQDEDAWSPVEMMGKQLENRVVLSVSSGGQHTVLLVKDKEQS | 2.15 log base 2 | 2.25 log base 2
0.46 log base 2 | 0.01 log base 2 | 0.23 log base 2 | SRP9 (protein, UniProt P49458 2-86, looked up) Signal recognition particle 9 …: PQYQTWEEFSRAAEKLYLADPMKARVVLKYRHSDGNLCVKVTDDLVCLVYKTDQAQDVKKIEKFHSQLMRLMVAKEARNVTMETE | 1.88 log base 2 | 1.52 log base 2
0.11 log base 2 | 0.35 log base 2 | 0.23 log base 2 | SAFB (protein, UniProt Q15424 2-915, looked up) Scaffold attachment factor B1: AETLSGLGDSGAAGAAALSSASSETGTRRLSDLRVIDLRAELRKRNVDSSGNKSVLMERLKKAIEDEGGNPDEIEITSEGNKKTSKRSSKGRKPEEEGVEDNGLEENSGDGQEDVETSLENLQDIDIMDISVLDEAEIDNGSVADCVEDDDADNLQESLSDSRELVEGEMKELPEQLQEHAIEDKETINNLDTSSSDFTILQEIEEPSLEPENEKILDILGETCKSEPVKEESSELEQPFAQDTSSVGPDRKLAEEEDLFDSAHPEEGDLDLASESTAHAQSSKADSLLAVVKREPAEQPGDGERTDCEPVGLEPAVEQSSAASELAEASSEELAEAPTEAPSPEARDSKEDGRKFDFDACNEVPPAPKESSTSEGADQKMSSPEDDSDTKRLSKEEKGRSSCGRNFWVSGLSSTTRATDLKNLFSKYGKVVGAKVVTNARSPGARCYGFVTMSTAEEATKCINHLHKTELHGKMISVEKAKNEPVGKKTSDKRDSDGKKEKSSNSDRSTNLKRDDKCDRKDDAKKGDDGSGEKSKDQDDQKPGPSERSRATKSGSRGTERTVVMDKSKGVPVISVKTSGSKERASKSQDRKSASREKRSVVSFDKVKEPRKSRDSESHSRVRERSEREQRMQAQWEREERERLEIARERLAFQRQRLERERMERERLERERMHVEHERRREQERIHREREELRRQQELRYEQERRPAVRRPYDLDRRDDAYWPEAKRAALDERYHSDFNRQDRFHDFDHRDRGRYPDHSVDRREGSRSMMGEREGQHYPERHGGPERHGRDSRDGWGGYGSDKRMSEGRGLPPPPRRDWGDHGRREDDRSWQGTADGGMMDRDHKRWQGGERSMSGHSGPGHMMNRGGMSGRGSFAPGGASRGHPIPHGGMQGGFGGQSRGSRPSDARFTRRY | 2.38 log base 2 | 2.76 log base 2
0.28 log base 2 | 0.18 log base 2 | 0.23 log base 2 | PPP1CB (protein, UniProt P62140 2-327, looked up) Serine/threonine-protein …: ADGELNVDSLITRLLEVRGCRPGKIVQMTEAEVRGLCIKSREIFLSQPILLELEAPLKICGDIHGQYTDLLRLFEYGGFPPEANYLFLGDYVDRGKQSLETICLLLAYKIKYPENFFLLRGNHECASINRIYGFYDECKRRFNIKLWKTFTDCFNCLPIAAIVDEKIFCCHGGLSPDLQSMEQIRRIMRPTDVPDTGLLCDLLWSDPDKDVQGWGENDRGVSFTFGADVVSKFLNRHDLDLICRAHQVVEDGYEFFAKRQLVTLFSAPNYCGEFDNAGGMMSVDETLMCSFQILKPSEKKAKYQYGGLNSGRPVTPPRTANPPKKR | 2.35 log base 2 | 2.55 log base 2
0.61 log base 2 | −0.15 log base 2 | 0.23 log base 2 | CNN3 (protein, UniProt Q15417 1-329, looked up) Calponin-3: MTHFNKGPSYGLSAEVKNKIASKYDHQAEEDLRNWIEEVTGMSIGPNFQLGLKDGIILCELINKLQPGSVKKVNESSLNWPQLENIGNFIKAIQAYGMKPHDIFEANDLFENGNMTQVQTTLVALAGLAKTKGFHTTIDIGVKYAEKQTRRFDEGKLKAGQSVIGLQMGTNKCASQAGMTAYGTRRHLYDPKMQTDKPFDQTTISLQMGTNKGASQAGMLAPGTRRDIYDQKLTLQPVDNSTISLQMGTNKVASQKGMSVYGLGRQVYDPKYCAAPTEPVIHNGSQGTGTNGSEISDSDYQAEYPDEYHGEYQDDYPRDYQYSDQGIDY | 2.36 log base 2 | 2.35 log base 2
